Measurements reported in FireProtDB (doi:10.1006/jmbi.1995.0323).

B1: Subtilisin inhibitor, P01006 (parent)
chain: MRNTGAGPSPSVSRPPPSAAPLSGAALAAPGDAPSALYAPSALVLTVGKGVSATTAAPERAVTLTCAPGPSGTHPAAGSACADLAAVGGDLNALTRGEDVMCPMVYDPVLLTVDGVWQGKRVSYERVFSNECEMNAHGSSVFAF

Variants of: B1
Settings: Streptomyces albogriseolus, Thermal, DSC, reversible: yes, structure 3SSI, whole UniProt chain shown
[1] = pH 7, 82.21 °C, Sodium phosphate 25 mM
[2] = pH 3.2, 53.36 °C, glycine 25 mM

M134I
Tm (pH 3.2, glycine 25 mM): 46.1 °C
change of melting temperature, mutant - wild type (higher = more stable) (pH 3.2, glycine 25 mM): -7.3 °C
unfolding enthalpy (calorimetric) (pH 3.2, glycine 25 mM): 98.8 kcal/mol
ddG of mutation (higher = less stable) [1]: 1.89 kcal/mol
unfolding free energy [1]: 4.14 kcal/mol
Tm (pH 7, Sodium phosphate 25 mM): 78.3 °C
change of melting temperature, mutant - wild type (higher = more stable) (pH 7, Sodium phosphate 25 mM): -3.9 °C
unfolding enthalpy (calorimetric) (pH 7, Sodium phosphate 25 mM): 179 kcal/mol
ddG of mutation (higher = less stable) (pH 9.5, 80.7 °C, glycine 25 mM): 2.29 kcal/mol
unfolding free energy (pH 9.5, 80.7 °C, glycine 25 mM): 3.75 kcal/mol
Tm (pH 9.5, glycine 25 mM): 75.9 °C
change of melting temperature, mutant - wild type (higher = more stable) (pH 9.5, glycine 25 mM): -4.8 °C
unfolding enthalpy (calorimetric) (pH 9.5, glycine 25 mM): 175 kcal/mol

M134G
Tm (pH 7, Sodium phosphate 25 mM): 68.6 °C
change of melting temperature, mutant - wild type (higher = more stable) (pH 7, Sodium phosphate 25 mM): -13.6 °C
unfolding enthalpy (calorimetric) (pH 7, Sodium phosphate 25 mM): 191 kcal/mol
Tm (pH 9.5, glycine 25 mM): 66.3 °C
change of melting temperature, mutant - wild type (higher = more stable) (pH 9.5, glycine 25 mM): -14.4 °C
unfolding enthalpy (calorimetric) (pH 9.5, glycine 25 mM): 187 kcal/mol

M134L
ddG of mutation (higher = less stable) [2]: -0.77 kcal/mol
unfolding free energy [2]: 6.32 kcal/mol
ddG of mutation (higher = less stable) [1]: -0.15 kcal/mol
unfolding free energy [1]: 6.18 kcal/mol
Tm (pH 7, Sodium phosphate 25 mM): 82.5 °C
change of melting temperature, mutant - wild type (higher = more stable) (pH 7, Sodium phosphate 25 mM): 0.3 °C
unfolding enthalpy (calorimetric) (pH 7, Sodium phosphate 25 mM): 182 kcal/mol
ddG of mutation (higher = less stable) (pH 9.5, 80.7 °C, glycine 25 mM): 0.29 kcal/mol
unfolding free energy (pH 9.5, 80.7 °C, glycine 25 mM): 5.75 kcal/mol
Tm (pH 9.5, glycine 25 mM): 80.2 °C
change of melting temperature, mutant - wild type (higher = more stable) (pH 9.5, glycine 25 mM): -0.48 °C
unfolding enthalpy (calorimetric) (pH 9.5, glycine 25 mM): 178 kcal/mol

M134V
ddG of mutation (higher = less stable) [2]: 1.35 kcal/mol
unfolding free energy [2]: 4.2 kcal/mol
Tm (pH 3.2, glycine 25 mM): 49.1 °C
change of melting temperature, mutant - wild type (higher = more stable) (pH 3.2, glycine 25 mM): -4.3 °C
unfolding enthalpy (calorimetric) (pH 3.2, glycine 25 mM): 107 kcal/mol
ddG of mutation (higher = less stable) [1]: 1.84 kcal/mol
unfolding free energy [1]: 4.19 kcal/mol
Tm (pH 7, Sodium phosphate 25 mM): 78.6 °C
change of melting temperature, mutant - wild type (higher = more stable) (pH 7, Sodium phosphate 25 mM): -3.6 °C
unfolding enthalpy (calorimetric) (pH 7, Sodium phosphate 25 mM): 179 kcal/mol
ddG of mutation (higher = less stable) (pH 9.5, 80.7 °C, glycine 25 mM): 2.22 kcal/mol
unfolding free energy (pH 9.5, 80.7 °C, glycine 25 mM): 3.82 kcal/mol
Tm (pH 9.5, glycine 25 mM): 76.4 °C
change of melting temperature, mutant - wild type (higher = more stable) (pH 9.5, glycine 25 mM): -4.33 °C
unfolding enthalpy (calorimetric) (pH 9.5, glycine 25 mM): 184 kcal/mol

M134A
ddG of mutation (higher = less stable) [2]: 1.35 kcal/mol
unfolding free energy [2]: 4.2 kcal/mol
Tm (pH 3.2, glycine 25 mM): 49.3 °C
change of melting temperature, mutant - wild type (higher = more stable) (pH 3.2, glycine 25 mM): -4.1 °C
unfolding enthalpy (calorimetric) (pH 3.2, glycine 25 mM): 113 kcal/mol
ddG of mutation (higher = less stable) [1]: 2.32 kcal/mol
unfolding free energy [1]: 3.71 kcal/mol
Tm (pH 9.5, glycine 25 mM): 75.5 °C
change of melting temperature, mutant - wild type (higher = more stable) (pH 9.5, glycine 25 mM): -5.18 °C
unfolding enthalpy (calorimetric) (pH 9.5, glycine 25 mM): 193 kcal/mol
